Laboratory results reported in US20240307885.

Target: Insulin from bovine pancreas, P01317
Sequence (P01317 85-105, chain 1 of 2): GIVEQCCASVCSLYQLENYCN
Sequence (P01317 25-54, chain 2 of 2): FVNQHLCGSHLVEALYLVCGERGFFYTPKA

B1: Protein disulfide isomerase from Thermoascus crustaceus (SEQ ID NO: 1) (protein)
chain: ADAESDVRSLKKDTFDDFIKEHDLVLAEFFAPWCGHCQALAPEYEAAASELKEKNIPLAKVDCTEEADLCKEHGVEGYPTLKVFRGLDSVKPYPGARKSAAIVSYMVKQSLPAVSTVTKENLEEFKTMDKVVIIGYIAPDDKTSNETFTAFADSKRDDYLFAATNDAALAKAEGVKQPSIVLYKDFDEKKDVFDGKFDQETMLSWVKTASTPLVGEIGPETYAGYMSAGIPLAFIFAETPEERQKLAADFKPIAEKHRGAINIVTIDAKAFGAYAGNLNLDPQKFPCFAIHDTVKNAKFPYDQSKEVNAKDIGQFVQEVLDGKVEPSIKSEPIPETQEGSVTVVVAHSYRELVIDNDKDVLLEFYAPWCGHCKALAPKYEELGRLYAENPDLASKVTVAKIDATANDVPDEIQGFPTIKLFPAGAKDSPVDYAGSRTVEDLANFIKENGKHKVDALSAATAKPEQGGDVTSTPSISSETTAETAAPTTDGSEHDEL
In the case of B1, the “Insulin reduction assay with DTT, MALDI MS (worded result)” value is reported as “in the presence of the PDI, a significant amount of the cystines are reduced resulting in separation of the insulin into the A peptide and B peptide”, the “Insulin reduction assay with sulfite, MALDI MS (worded result)” value is reported as “in the presence of the PDI, a significant amount of the cystines are reduced resulting in separation of the insulin into the A peptide and B peptide” and the Ratio (A chain): mass peak area of A peptide chain to intact insulin, MALDI MS; 2.5 µg/mL PDI, 0 mM DTT is reported as 0.006. It also gave a Ratio (A chain): mass peak area of A peptide chain to intact insulin, MALDI MS; 2.5 µg/mL PDI, 0 mM sulfite of 0.009, a Ratio (A chain): mass peak area of A peptide chain to intact insulin, MALDI MS; 2.5 µg/mL PDI, 2 mM DTT of 0.035 and a Ratio (A chain): mass peak area of A peptide chain to intact insulin, MALDI MS; 2.5 µg/mL PDI, 2.9 mM sulfite of 0.027. It also gave a Ratio (A chain): mass peak area of A peptide chain to intact insulin, MALDI MS; 5 µg/mL PDI, 0 mM DTT of 0.005, a Ratio (A chain): mass peak area of A peptide chain to intact insulin, MALDI MS; 5 µg/mL PDI, 0 mM sulfite of 0.007 and a Ratio (A chain): mass peak area of A peptide chain to intact insulin, MALDI MS; 5 µg/mL PDI, 2 mM DTT of 0.07. For the same protein, the Ratio (A chain): mass peak area of A peptide chain to intact insulin, MALDI MS; 5 µg/mL PDI, 2.9 mM sulfite was 0.05, the Ratio (A chain): mass peak area of A peptide chain to intact insulin, MALDI MS; 10 µg/mL PDI, 0 mM DTT was 0.003 and the Ratio (A chain): mass peak area of A peptide chain to intact insulin, MALDI MS; 10 µg/mL PDI, 0 mM sulfite was 0.008. It also gave a Ratio (A chain): mass peak area of A peptide chain to intact insulin, MALDI MS; 10 µg/mL PDI, 2 mM DTT of 0.172, a Ratio (A chain): mass peak area of A peptide chain to intact insulin, MALDI MS; 10 µg/mL PDI, 2.9 mM sulfite of 0.104 and a Ratio (B chain): mass peak area of B peptide chain to intact insulin, MALDI MS; 2.5 µg/mL PDI, 0 mM DTT of 0.01. The Ratio (B chain): mass peak area of B peptide chain to intact insulin, MALDI MS; 2.5 µg/mL PDI, 0 mM sulfite was 0.019, the Ratio (B chain): mass peak area of B peptide chain to intact insulin, MALDI MS; 2.5 µg/mL PDI, 2 mM DTT was 0.109 and the Ratio (B chain): mass peak area of B peptide chain to intact insulin, MALDI MS; 2.5 µg/mL PDI, 2.9 mM sulfite was 0.055. The Ratio (B chain): mass peak area of B peptide chain to intact insulin, MALDI MS; 5 µg/mL PDI, 0 mM DTT was 0.009, the Ratio (B chain): mass peak area of B peptide chain to intact insulin, MALDI MS; 5 µg/mL PDI, 0 mM sulfite was 0.018 and the Ratio (B chain): mass peak area of B peptide chain to intact insulin, MALDI MS; 5 µg/mL PDI, 2 mM DTT was 0.185. The Ratio (B chain): mass peak area of B peptide chain to intact insulin, MALDI MS; 5 µg/mL PDI, 2.9 mM sulfite was 0.083, the Ratio (B chain): mass peak area of B peptide chain to intact insulin, MALDI MS; 10 µg/mL PDI, 0 mM DTT was 0.007 and the Ratio (B chain): mass peak area of B peptide chain to intact insulin, MALDI MS; 10 µg/mL PDI, 0 mM sulfite was 0.017. For the same protein, the Ratio (B chain): mass peak area of B peptide chain to intact insulin, MALDI MS; 10 µg/mL PDI, 2 mM DTT was 0.335 and the Ratio (B chain): mass peak area of B peptide chain to intact insulin, MALDI MS; 10 µg/mL PDI, 2.9 mM sulfite was 0.17.
